Consider two proteins from publication PMC3072757 (Journal of molecular biology, 2010).

Read-outs that look alike come from different tables or passages of the source.

Data set [1] deals with the molecule itself. Description: SEC. (In general: SEC sorts molecules by how far they enter the pores of the column.)
Data set [2] concerns the molecule itself. Description: SEC. The source holds these as a separate data set.

B1: Recombinant wild-type human αB-crystallin (natural protein, UniProt P02511 1-175, looked up)
chain: MDIAIHHPWIRRPFFPFHSPSRLFDQFFGEHLLESDLFPTSTSLSPFYLRPPSFLRAPSWFDTGLSEMRLEKDRFSVNLDVKHFSPEELKVKVLGDVIEVHGKHEERQDEHGFISREFHRKYRIPADVDPLTITSSLSSDGVLTVNGPRKQVSGPERTIPITREEKPAVTAAPKK
In the case of B1, the binding result in “SEC [1]” is reported as “binds”.

B2: W9F/W60F αB-Crys (natural protein, human, UniProt P02511 1-175, looked up)
chain: MDIAIHHPFIRRPFFPFHSPSRLFDQFFGEHLLESDLFPTSTSLSPFYLRPPSFLRAPSFFDTGLSEMRLEKDRFSVNLDVKHFSPEELKVKVLGDVIEVHGKHEERQDEHGFISREFHRKYRIPADVDPLTITSSLSSDGVLTVNGPRKQVSGPERTIPITREEKPAVTAAPKK
Consider B2, for which the binding result in the data set “SEC [2]” is listed as “binds”.
